Results: patent publication US20220348651A1 (Novartis, published 2022)

Molecular target: T1, recombinant murine ENTPD2 (residues 29-462) used in crystallography studies (mouse, UniProt O55026 29-462, N-linked glycosylation observed at Asn129 and Asn378)
T1 construct: also called murine ENTPD2 ectodomain; mENTPD2
T1 sequence: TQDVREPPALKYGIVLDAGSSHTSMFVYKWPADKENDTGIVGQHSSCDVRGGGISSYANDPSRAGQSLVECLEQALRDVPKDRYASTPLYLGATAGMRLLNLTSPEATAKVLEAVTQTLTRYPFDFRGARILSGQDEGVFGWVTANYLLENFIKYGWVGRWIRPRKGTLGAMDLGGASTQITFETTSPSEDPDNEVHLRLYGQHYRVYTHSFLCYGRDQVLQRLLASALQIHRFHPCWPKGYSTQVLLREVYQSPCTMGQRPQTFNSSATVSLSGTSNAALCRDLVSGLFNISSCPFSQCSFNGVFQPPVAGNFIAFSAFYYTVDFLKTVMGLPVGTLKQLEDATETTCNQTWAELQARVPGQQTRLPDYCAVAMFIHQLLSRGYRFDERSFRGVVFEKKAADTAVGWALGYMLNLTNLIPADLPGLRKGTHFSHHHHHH
Assay: X-ray crystal structure of the complex
Experimental: Structure determination by molecular replacement was performed using the previously determined human ENTPD2 coordinates and Fab coordinates from PDB code 3QRG.

buried solvent-accessible surface: ~16300 Å2
B1: ANTI-mouse ENTPD2 FAB24 (Fab, V domains shown)
VH: QVQLVQSGAELKQPGQSVKISCKASGYTFTHYGMNWVKQAPGQGLKWMGWINTDTGNPTYADDFKGRFVFSLDTSVSTAYLQISNLKNEDTATYYCVRYGTLYSGYGFFFDSWGQGTLVTVSS
VL: DIMMTQSPSSLSVSAGEKATITCKSSQSLFNSNTNKNYLNWYLQKPGQSPKLLFYYASTRHTGVPDRFIGSGSGTDFTLTITSVQDEDLADYYCQQWYSYPWTFGPGTKLEIKR
modifications: N-terminal residue observed and modeled as pyroglutamate in the crystal structure
notes: Fab with the variable regions of mAb13; human CH1 and kappa constant regions; also called anti-murine ENTPD2 Fab MAB13
